Data from the supplement of paper PMC5998384.

Key:
HeLa Kyoto [1] = experiment: solubility change mitosis vs G1/S (difference of NP-40 vs SDS log2 ratios) (log2 ratio difference); higher = more soluble in mitosis
HeLa Kyoto [2] = experiment: thermal stability score vs G1/S (z-score of summed log2 fold changes over temperatures); higher = more thermally stable than in G1/S
HeLa Kyoto [3] = experiment: melting temperature (median over replicates), in situ; higher = more thermally stable
HeLa Kyoto [4] = experiment: solubility in G1/S (NP-40 vs SDS abundance) (log2 ratio); higher = more soluble; details: cell cycle stage: G1/S
[5] = cell cycle stage: early G1 (4.5 h after nocodazole release)
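For melting temperature (median over replicates), in situ in this document: HeLa Kyoto cells synchronized by double thymidine or nocodazole block, proteins quantified by TMT10plex mass spectrometry, three independent biological replicates.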
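For solubility change mitosis vs G1/S (difference of NP-40 vs SDS log2 ratios) in this document: synchronized HeLa Kyoto cells (double thymidine block for G1/S, nocodazole release for mitosis), protein amounts in NP-40 versus SDS lysates quantified by mass spectrometry, three biological replicates.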
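For solubility in G1/S (NP-40 vs SDS abundance) in this document: HeLa Kyoto cells arrested at G1/S by double thymidine block, proteins quantified by TMT10plex mass spectrometry in mild NP-40 versus SDS extracts, three biological replicates.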
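For thermal stability score vs G1/S (z-score of summed log2 fold changes over temperatures) in this document: synchronized HeLa Kyoto cells, proteins quantified by TMT10plex mass spectrometry, three biological replicates, mitosis taken 0.5 h after nocodazole release, G1/S directly after double thymidine block.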

| Sequence | solubility change mitosis (log2) (HeLa Kyoto [1]) | thermal stability score (HeLa Kyoto [2]; [5]) | thermal stability score (HeLa Kyoto [2]; cell cycle stage: mitosis) | melting temperature (HeLa Kyoto [3]; cell cycle stage: G1/S) [°C] | melting temperature (HeLa Kyoto [3]; cell cycle stage: mitosis) [°C] | solubility in G1/S (log2) (HeLa Kyoto [4]) |
| --- | --- | --- | --- | --- | --- | --- |
| MALDVKSRAKRYEKLDFLGEGQFATVYKARDKNTNQIVAIKKIKLGHRSEAKDGINRTALREIKLLQELSHPNIIGLLDAFGHKSNISLVFDFMETDLEVIIKDNSLVLTPSHIKAYMLMTLQGLEYLHQHWILHRDLKPNNLLLDENGVLKLADFGLAKSFGSPNRAYTHQVVTRWYRAPELLFGARMYGVGVDMWAVGCILAELLLRVPFLPGDSDLDQLTRIFETLGTPTEEQWPDMCSLPDYVTFKSFPGIPLHHIFSAAGDDLLDLIQGLFLFNPCARITATQALKMKYFSNRPGPTPGCQLPRPNCPVETLKEQSNPALAIKRKRTEALEQGGLPKKLIF [CDK7] | -0.142 | 0.106 | 1.13 | 51 | 51 | 0.167 |
| MDAALKRSRSEEPAEILPPARDEEEEEEEGMEQGLEEEEEVDPRIQGELEKLNQSTDDINRRETELEDARQKFRSVLVEATVKLDELVKKIGKAVEDSKPYWEARRVARQAQLEAQKATQDFQRATEVLRAAKETISLAEQRLLEDDKRQFDSAWQEMLNHATQRVMEAEQTKTRSELVHKETAARYNAAMGRMRQLEKKLKRAINKSKPYFELKAKYYVQLEQLKKTVDDLQAKLTLAKGEYKMALKNLEMISDEIHERRRSSAMGPRGCGVGAEGSSTSVEDLPGSKPEPDAISVASEAFEDDSCSNFVSEDDSETQSVSSFSSGPTSPSEMPDQFPAVVRPGSLDLPSPVSLSEFGMMFPVLGPRSECSGASSPECEVERGDRAEGAENKTSDKANNNRGLSSSSGSGGSSKSQSSTSPEGQALENRMKQLSLQCSKGRDGIIADIKMVQIG [SH3BP5] | -0.0509 | -1.02 | -0.824 | 53.2 | 52 | 0.134 |
| MSAYPKSYNPFDDDGEDEGARPAPWRDARDLPDGPDAPADRQQYLRQEVLRRAEATAASTSRSLALMYESEKVGVASSEELARQRGVLERTEKMVDKMDQDLKISQKHINSIKSVFGGLVNYFKSKPVETPPEQNGTLTSQPNNRLKEAISTSKEQEAKYQASHPNLRKLDDTDPVPRGAGSAMSTDAYPKNPHLRAYHQKIDSNLDELSMGLGRLKDIALGMQTEIEEQDDILDRLTTKVDKLDVNIKSTERKVRQL [SNAP29] | 0.314 | -4.76 | -2.04 | 52.7 | 52.7 | 0.394 |
| MAGVRSLRCSRGCAGGCECGDKGKCSDSSLLGKRLSEDSSRHQLLQKWASMWSSMSEDASVADMERAQLEEEAAAAEERPLVFLCSGCRRPLGDSLSWVASQEDTNCILLRCVSCNVSVDKEQKLSKREKENGCVLETLCCAGCSLNLGYVYRCTPKNLDYKRDLFCLSVEAIESYVLGSSEKQIVSEDKELFNLESRVEIEKSLTQMEDVLKALQMKLWEAESKLSFATCKS [MIS18A] | 0.371 | -2.17 | -2.88 | 51.3 | 51.9 | -0.162 |
| MAAPGSARRPLLLLLLLLLLGLMHCASAAMFMVKNGNGTACIMANFSAAFSVNYDTKSGPKNMTFDLPSDATVVLNRSSCGKENTSDPSLVIAFGRGHTLTLNFTRNATRYSVQLMSFVYNLSDTHLFPNASSKEIKTVESITDIRADIDKKYRCVSGTQVHMNNVTVTLHDATIQAYLSNSSFSRGETRCEQDRPSPTTAPPAPPSPSPSPVPKSPSVDKYNVSGTNGTCLLASMGLQLNLTYERKDNTTVTRLLNINPNKTSASGSCGAHLVTLELHSEGTTVLLFQFGMNASSSRFFLQGIQLNTILPDARDPAFKAANGSLRALQATVGNSYKCNAEEHVRVTKAFSVNIFKVWVQAFKVEGGQFGSVEECLLDENSMLIPIAVGGALAGLVLIVLIAYLVGRKRSHAGYQTI [LAMP1] | 0.0596 | -2.35 | -3.71 | 59.9 | 61.1 | 0.0646 |
